# Data taken from paper PMC3017645 (Journal of molecular biology, 2010).
# B1: Dsn1p (natural protein, budding yeast (S. cerevisiae), UniProt P40568 1-576, looked up)
# chain: MSLEPTQTVSGTPPMLHQRTHKQVYPLRMETIPILESDSKATLQSNEPTQKDEEETEYFENKQSVSNLSPDLKFKRHKNKHIQGFPTLGERLDNLQDIKKAKRVENFNSSAPIADDNHSGDATANATANATANATANVNASAMPAPYMPYYYYYHPMNAPTPAMIPYPGSPMHSIMPNSSLQPFYSQPTAAGGPDMTTPQNISSSQQLLPAPQLFPYGSFHQQQLQQPHYIQRTRERKKSIGSQRGRRLSMLASQANGGSTIISPHKDIPEEDFYTVVGNASFGKNLQIRQLFNWCLMRSLHKLELKAKNQEEEGELEHLTKKSKLESTKAETDYVDPKRLAMVIIKEFVDDLKKDHIAIDWEDEEKYEDEDEEKILDNTENYDDTELRQLFQENDDDDDDDDEVDYSEIQRSRRKFSERRKALPKEPKKLLPNSKNVENTKNLSILTSKVNAIKNEVKEWAVTLDTSRPDLEWQELTSFSSQPLEPLSDTEEPDLAIADVETKLETKVDELRYQSHILNSHSLALNEITNSKVNKLNIETMRKISSETDDDHSQVINPQQLLKGLSLSFSKKLDL
# B2: Mtw1p (natural protein, budding yeast (S. cerevisiae), UniProt P39731 1-289, looked up)
# chain: MSAPTMRSTSILTEHLGYPPISLVDDIINAVNEIMYKCTAAMEKYLLSKSKIGEEDYGEEIKSGVAKLESLLENSVDKNFDKLELYVLRNVLRIPEEYLDANVFRLENQKDLVIVDENELKKSEEKLREKVNDVELAFKKNEMLLKRVTKVKRLLFTIRGFKQKLNELLKCKDDVQLQKILESLKPIDDTMTLLTDSLRKLYVDSESTSSTEEVEALLQRLKTNGKQNNKDFRTRYIDIRTNNVLRKLGLLGDKEDEKQSAKPDARTQAGDIVSIDIEEPQLDLLDDVL
# B3: Nsl1p (natural protein, budding yeast (S. cerevisiae), UniProt Q12143 1-216, looked up)
# chain: MSQGQSKKLDVTVEQLRSIYHQFHDILEEKTDLHLPKKEYDDDAVRREVQIQLQEFLLSAMTMASKSLEVVNADTVGKTVKQLIMESQEKYMEPFDLDLNEQVRKMYQEWEDETVKVAQLRQTGPAKINEVYNNSKDEYLAQLDGRIGVLQARMMQQQSADHDDSTDDADDHINWEHIKQDYVASLNELYQTQQDLPKVRYNVEKVKRLMDFLEED
# Target: T1, Nnf1p-6xHis (budding yeast (S. cerevisiae), UniProt P47149 1-201)
# T1 sequence (looked up): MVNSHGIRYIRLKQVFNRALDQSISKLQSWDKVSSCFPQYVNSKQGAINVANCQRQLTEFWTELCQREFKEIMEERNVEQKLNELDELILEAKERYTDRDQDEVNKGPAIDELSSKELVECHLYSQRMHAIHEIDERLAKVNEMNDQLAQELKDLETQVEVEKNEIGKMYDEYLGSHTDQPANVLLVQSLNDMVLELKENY
# Assay: co-purification of co-expressed subunits
row,Binder,stoichiometry N
1,B1,1
2,B2,1
3,B3,1
